Measured values as given in US20260241035A1, “FUNCTIONAL NUCLEIC ACID MOLECULE AND METHOD” (THE UNIVERSITY COURT OF THE UNIVERSITY OF EDINBURGH, priority 2022, published 2026).

What was measured:
GSC7 cells = test: Nano-Glo Dual-Luciferase Reporter (Nanoglo DLR) assay of enhancer activity, fold change to mCMV; type: cell-based, human; conditions: expression fold change of the individual enhancer compared to mCMV
How it was run: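 160 bp enhancer fragments in NanoLuc reporter plasmids were co-transfected 1:10 with PGK-firefly luciferase into GSC7 cells using Lipofectamine LTX/Plus and read two days later. NanoLuc signal was normalised to firefly, then expressed as fold change to the empty mCMV vector.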

SOX9 = target: T1, SOX9 (Homo sapiens, UniProt P48436); test: Biotinylated enhancer pull down from nuclear extract, SOX9 detection; type: binding; conditions: random DNA 599 as negative control
T1 construct: These dsDNA fragments were incubated with nuclear extract from GSC7 and GSC328; endogenous in cells; host or cells: nuclear extract of GSC7 and/or GSC328 (patient-derived glioblastoma stem cell lines)
T1 sequence (P48436 1-509): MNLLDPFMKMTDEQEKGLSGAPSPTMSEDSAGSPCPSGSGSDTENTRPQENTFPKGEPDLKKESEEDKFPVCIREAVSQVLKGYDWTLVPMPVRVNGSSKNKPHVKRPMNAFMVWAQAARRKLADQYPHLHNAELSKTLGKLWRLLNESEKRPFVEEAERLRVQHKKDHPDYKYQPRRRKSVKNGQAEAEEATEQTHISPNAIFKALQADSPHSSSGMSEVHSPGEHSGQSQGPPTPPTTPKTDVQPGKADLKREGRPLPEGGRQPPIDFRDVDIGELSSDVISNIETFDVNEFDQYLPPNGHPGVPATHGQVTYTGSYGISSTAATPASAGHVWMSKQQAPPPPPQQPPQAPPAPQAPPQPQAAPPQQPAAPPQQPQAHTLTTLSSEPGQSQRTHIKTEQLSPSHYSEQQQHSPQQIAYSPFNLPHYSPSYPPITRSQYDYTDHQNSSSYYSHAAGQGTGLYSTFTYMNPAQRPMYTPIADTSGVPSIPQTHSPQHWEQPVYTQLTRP
Experimental: The oligo was PCR-amplified using biotinylated primers. The PCR product was then SPRI purified to remove biotinylated primer dimers. These dsDNA fragments were incubated with nuclear extract from GSC7 and GSC328. They were then bound to streptavidin magnetic beads, washed three times and the frozen beads were sent for mass spectrometry analysis.
All the buffers were prepared the day before, passed through a 22 μm filter (except the dialysis buffer) and left at 4° C. overnight. DTT and protease inhibitors were added just before use. […] The cell suspension was transferred to a glass Dounce homogenizer and dounced 40 times on ice. […] Dialysis buffer was changed (500 ml) and the dialysis was continued overnight at 4° C. The extract was collected in an 1.5 ml tube and spun at maximum speed for 15 min at 4° C. […] 100 μg aliquots were flash frozen in liquid nitrogen and stored at −80° C.
Enhancers were amplified with 5′ biotinylated primers (Table 5) using PrimeStar Max (Takara) according to the manufacturer's instructions.
Streptavidin Magnetic Bead (NEB, S1420S) were used according to the manufacturer's instructions. […]
Next, we aimed to confirm that indeed SOX2 and SOX9 are binding to the enhancer and the SOX dimer motif. […] To filter for transcription factors a list of all transcription factors was obtained from UniProt and overlapped with the detected proteins in both cell lines.

B1: ID1101: enhancer fragment, SEQ ID NO: 4 (nucleic acid)
DNA: GTGAGTGTGACTCACATGCTGGCATCAGAGCCCCTCTTAGAGCTTAGAACACTGGGCCTCTGTCAGGCAAAGAAAAGGAGTCCCTATGAATAGCCATCTCCACAAATAGCAGTTACTGTCACTTCTTAAAAGACACAAGCATGGCTGGAGACCGGCACTG
GSC7 cells
  Fold change (Median): 258.8 fold
SOX9
  SOX9 interaction: selectively interacts
